Measurements reported in publication PMC9253517 (The Journal of Experimental Medicine, 2022).

Assays:
[1] = target: T1, SARS-CoV-2 Wuhan-Hu-1 RBD (SARS-CoV-2, Wuhan-Hu-1 (GenBank …, UniProt P0DTC2)); assay: BLI; conditions: both partners purified
[2] = target: T1, SARS-CoV-2 Wuhan-Hu-1 RBD; assay: cell-based or functional assay

Row | Binder | binding result [1] | neutralisation IC50, Wuhan-Hu-1 pseudovirus [2]
1 | JR094 (antibody, V domains shown) VH: EVQLVQSGAEVKKPGESLKISCKGSGYSFIFYWIGWVRQMPGKGLEWMGIIYPGDSDTRYSPSFQGQVTISADKSISTAYLQWSSLKASDTAMYYCASTVTRSPYDAFDMWGQGTMVTVSS VL: not shown | binds | > 1 µg/mL
2 | JR095 (antibody, V domains shown) VH: VQLVESGGGVVQPGRSLRLSCAASGFTFSRYAMHWVRQAPGKGLQWVAIISYDGSNKYYADSVKGRFTISRDNSKNTLYLQMNSLRAEDTAVYYCARHITGTDYWGQGTLVTVSS VL: DIQMTQSPSSLSASVGDRVTITCRASQGISIYLAWFQQKPGKAPKSLIYAASNLQSGVPSKFSGSGSGTDFTLTISSLQPEDFATYYCQQYDSYPITFGQGTRLEIK | binds | > 1 µg/mL
3 | JR097 (antibody, V domains shown) VH: QVQLVQSGAEVKKPGASVKVSCKTSAYTFTTYFMHWVRQAPGQGLEWMGIINPSGGSTRYAQKFQGRVTMTRDTSTSTVYMELSGLRSEDTAVYYCARERRPGFYDSSGYSFDYWGQGTLVTVSS VL: SYELTQPPSVSVAPGKTARITCGGNNIGSKSVHWYQQKPGQAPVLVVYDDSDRPSGIPERFSGSNSGNTATLTISRVEAGDEADYYCQVWDSSSDPVVFGGGTKLTVL | binds | > 1 µg/mL
4 | JR170 (antibody, V domains shown) VH: QVQLVQSGAEVRKPGASVKVSCKASRYTFTNNYIHWVRQAPGQGLEWMGIINPSGGSTTYAQKFQGRVTMTGDTSTSTVYMELSSLRSEDTAVYYCARGGFVPAATSYFDYWGQGTLVTVS VL: QSALTQPRSVSGSPGQSVTISCTGTSSDVGGYNYVSWYQQHPGKAPKLMIYDVSKRPSGVPDRFSGSKSGNTASLTISGLQAEDEADYYCCSYAGSYTLVFGGGTKLTVL | binds | > 1 µg/mL
5 | JR171 (antibody, V domains shown) VH: QVQLVQSGAEVKKPGASVKVSCKASGYTFTSYYMHWVRQAPGQGLEWMGIINPSGGSTSYAQKFQGRVTMTRDTSTSTVYMELSSLRSEDTAVYYCARAYDSAPGFDYWGQGTLVTVSS VL: DIQLTQSPSFLSASVGDRVTITCRASQGISSYLAWYQQKPGKAPKLLIYAASTLQSGVPSRFSGSGSGTEFTLTISSLQPEDFATYYCQQLNSYPSITFGQGTRLEIK | binds | > 1 µg/mL
6 | JR172 (antibody, V domains shown) VH: EVQLVESGGGLVQPGRSLRLSCAASGFTFDDYAMHWVRQTPGKGLEWVSSISWNSGSIGYADSVKGRFTISRDNAKNSLYLQMNSLRAEDTALYYCAKDKRIDYSNYGGGFDHWGQGTLVTVSS VL: not shown | binds | > 1 µg/mL
7 | JR179 (antibody, V domains shown) VH: QVQLVQSGAEVKKPGASVKVSCKASGYTFSSFAISWVRQAPGQGLEWMGWISAYNGNTNYAQNLQGRVTMTTDTSTSTVYMELRSLRSDDTAVYYCAREAGLTGNLDYWGQGTLVTVSS VL: SYELTQPPSVSVAPGQTARITCGGNNIGSKNVHWYQQKPGQAPVVVVYDDSDRPSGIPERFSGSNSGNTATLTISRVEAGDEADYYCQVWDSRSYHHVVFGGGTKLTVL | binds | > 1 µg/mL
8 | JR211 (antibody, V domains shown) VH: QVQLQESGPGLVKPSGTLSLTCAVSGGSISSSHWWNWVRQPPGKGLEWIGEIYHSGSTNYSPSLKSRVTISVDKSKNQFSLKLSSVTAADTAVYYCAKSMRAGPNDGFDYWGQGTLVTVSS VL: QSALTQPASVSGSPGQSITISCTGTSSDVGGYNYVSWYQQHPGKAPKLMIYDVSNRPSGVSNRFSGSKSGNTASLTISGLQAEDEADYYCSSYTSSSTVVFGGGTKLTVL | binds | > 1 µg/mL
9 | JR235 (antibody, V domains shown) VH: EVQLVESGGGLVQPGRSLRLSCAASGFTFDDYAMHWVRQAPGKGLEWVSGISWNSGRIDYADSVKGRFTISRDNAKNSLYLQMNSLRAEDTALYYCAKVSTVTTYLMGYFDLWGRGTLVTVSS VL: EIVMTQSPATLSVSPGERATLSCRASQSVSSNLAWFQQKPGQAPRLLIYGASTRATGIPARFSGSGSGTEFILTISSLQSEDFAVYYCQLYSYWPPESSFGQGTKLEIK | binds | > 1 µg/mL
10 | JR307 (antibody, V domains shown) VH: EVQLVESGGGLVQPGGSLRLSCEVSGFTFSNYWMHWVRQAPGKGLVWVSRVDSDGNSTTYADSVNGRFTISRDNAKNTLYLQMKSLRAEDTAIYYCTRDCENCRHWYFDLWGRGTLVTVS VL: SYELTQPPSVSVTPGQTARIACGGNNIGTKGVHWYQQRPGQAPVLVVYDDENRPSGIPERFSGSNSGDTATLIITWVEAGDEADYYCQVWHGLSDHPVFGGGTRLTVL | binds | > 1 µg/mL
11 | JR308 (antibody, V domains shown) VH: QVQLVESGGGVVQPGRSLRLSCAASGFTFSSYGMHWVRQAPGKGLEWVAVISYDGSNKYYADSLKGRFTISRDNSKNTLYLQMNSLRAEDTAVYYCAKEGRGTYYYGSGSCPGGYWGQGTLVTVSS VL: not shown | binds | > 1 µg/mL
12 | JR311 (antibody, V domains shown) VH: QVQLVQSGAEVKKPGASVKVSCKTSGYTFTNYFVHWVRQAPGQGLEWMGWINPNSGGTNYAQTFQAWVTMTRDTSINTAYMELSRLTSDDTAVYYCARDLSFSIVRGVMGYWGQGTLVTVSS VL: not shown | binds | > 1 µg/mL
13 | JR070 (antibody, V domains shown) VH: QLVQSGPEVKKPGTSVKVSCKASGFTFSSSAMQWVRQARGQGLEWIGWIVVGSGNTNYAQKFQERVTISRDMSTSTAYMEVSSLTSEDAAVYYCAAPNCSRTTCSDGFDIWGQGTMVTVSS VL: EIVLTQSPGTLSLSPGERATLSCRASQSVRSSYLAWYQQKPGQAPRLLIYGASSRATGIPDRFSGSGSGTDFTVTISRLEPEDFAVYYCQQYGNSPWTFGQGTKVEIK | binds | 0.00193 µg/mL
14 | JR062 (antibody, V domains shown) VH: EVQLVESGGGLIQPGGSLRLSCAASGFSVSNNYMNWVRQAPGKGLEWLSVIYNAGTTYYAGSVKGRFTISKDNSKNTLYLQLNSLRPEDTAVYYCARGHTGVAALMTGAFDIWGQGTMVTVSS VL: QSALTQPPSASGSPGQSVTISCTGTSSDVGGYDYVSWYQQYPGKAPKLMIYEVSKRPSGVPDRFSGSKSGNTASLTVSGLQAEDEADYYCSSYAGNNNWVFGGGTKLTVL | binds | 0.0029 µg/mL
15 | JR081 (antibody, V domains shown) VH: QVQLVQSGAEVKKPGASVKVSCKASGYIFTAYYMHWVRQAPGQGLEWMGWINPMSGATNYAQRFQGRVTMTRVTMTRDTSITTAYMELSRLRSDDTAVYYCARVNHIVGVTSSDPVYGMDVWGQGTTVTVSS VL: QSALTQPASVSGSPGQSITISCTGTSSDVGGYKYVSWYQQHPGKAPKLMIYEVSNRPSGVSSRFSGSKSGYTASLTISGLQAEDEADYYCSSYTNSPTLFYVFGTGTKVTVL | binds | 0.00347 µg/mL
16 | JR202 (antibody, V domains shown) VH: VQLVESGGGVVQPGRSLRLSCAASGFTFTTYTLHWVRQAPGKGLEWVAVISYDGNNKYYADSVKGRFTISRDDSKNTLYVQMNSLRAEDTAVYYCARSIGYYTGVDYWGQGTLVTVSS VL: NFMLTQPHSVSESPGKTVTISCTGSSGSIAINYVQWYQQRPGSAPITVIYEDNQRPSGVPDRFSGSIDSSSNSASLTISGLKTEDEADYYCQTYHSSTWVFGGGTKLTVL | binds | 0.00354 µg/mL
17 | JR162 (antibody, V domains shown) VH: EVQLLESGGGLVQQGGSLRLSCAASGFTFSGHAMSWVRQAPGEGLEWVSGISDGGGSTYYADSVRGRFTISRDNSKNTLYLQMNSLRAEDTAVYYCARRGGYCTNTICYTRYYYMDVWGKGTTVTVSS VL: DIQMTQSPSSVSASVGDRVTITCRSSQDISSWLAWYQQKPGKAPKLLIFAASSLQSGVPSRFSGSGSGTDFTLTISSLQPEDFATYYCQQANSFPLTFGGGTKVEI | binds | 0.00455 µg/mL
18 | JR318 (antibody, V domains shown) VH: QVQLVQSGAEVKSPGASVKVSCKASGYTFTSYDINWVRQATGQGLEWMGWMNPNSGNTDYAQKFQGRVTMTRDTSISTAYMELSSLRSEDTAIYYCARRSGYYNFGVGTRTNYYYYGMDVWGQGTTVTVSS VL: not shown | binds | 0.00652 µg/mL
19 | JR189 (antibody, V domains shown) VH: EVQLVESGGGLIQPGGSLRLSCAASGFNVNSNYINWVRQAPGKGLEWVSVIYSSGKTYFADSVKGRFTISRDNSKNTLYLQMNILRAEDTAVYYCATTTTVTPIWGQGTLVTVSS VL: DIQMTQSPSALSASVGDRVTFTCRASQDIRNYLGWYQQKPGEAPKLLVYAASSLQSGVPSRFSGSGSGTDFTLTISSLQPEDFATYYCLQDYNYPWTFGQGTKVEIK | binds | 0.0077 µg/mL
20 | JR316 (antibody, V domains shown) VH: QVQLVQSGAEVKKPGSSVKVSCKASGGSFSTHGISWVRQAPGQGLEWMGGIIPISGRANYAQNFQGRVTITADESTKTAYMELSSLRSEDTAVYYCARDDRFCDTTKCYGLWFDPWGQGTLVTVSS VL: DIQMTQSPSSLSASVGDRVTITCRASQSISTYLNWYQQKPGKAPKVLIYAASTLQSGVPSRFSGSGSGTDFTLTISSLQPEDFATYYCQQTYSSPRAFGQGTKVEIK | binds | 0.0108 µg/mL
21 | JR057 (antibody, V domains shown) VH: VQLVESGGGVVQPGRSLRLSCAASGFTFSSYAMHWVRQAPGKGLEWVALISYDGNNKYYADSVKGRFTVSRDNSKNTLFLQMNSLRAEDTAVYYCARDNEVSAAFDFWGQGTMVTVSS VL: EIVLTQSPGTLSLSPGERATLSCRASQSLSSTYLAWYQHKPGQAPRLLIYAASSRATDIPDRFSGSGSGTDFTLTISRLEPEDFAVYYCQQYGGSPMCSFGQGTKLEIK | binds | 0.0142 µg/mL
